According to PMC2844702 (Chemistry & biology, 2009):
Blank lines part the entries; values can stand above or below the compound they belong to.

Experiments:
TrkA 97-120 = TrkA 97-120 (UniProt P04629); details: cited from earlier work
TrkA = TrkA (UniProt P04629); details: cited from earlier work
TrkB [1] = biological target: TrkB (UniProt Q16620); details: cited from earlier work
TrkB [2] = format: binding

Sequence of UniProt Q16620 (Q16620 32-430): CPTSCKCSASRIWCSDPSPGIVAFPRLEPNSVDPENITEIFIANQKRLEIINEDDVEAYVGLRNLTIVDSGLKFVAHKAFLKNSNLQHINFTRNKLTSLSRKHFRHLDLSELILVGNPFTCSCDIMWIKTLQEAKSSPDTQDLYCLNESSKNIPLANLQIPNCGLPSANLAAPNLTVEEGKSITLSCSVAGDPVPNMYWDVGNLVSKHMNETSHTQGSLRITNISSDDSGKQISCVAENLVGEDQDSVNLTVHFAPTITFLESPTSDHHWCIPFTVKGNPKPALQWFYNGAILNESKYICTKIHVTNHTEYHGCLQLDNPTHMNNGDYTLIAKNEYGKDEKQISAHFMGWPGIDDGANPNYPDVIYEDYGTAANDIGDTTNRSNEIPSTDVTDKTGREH

Compound: NGF (from UniProt P01139)
Kd (TrkA 97-120): 1.3 nM
Kd (TrkA): 1 nM

Compound: BDNF (from UniProt P23560)
Kd (TrkB [1]): 1 nM

Kd (TrkB [2]): ~14000 nM
Compound: CN(C)CCC=C1c2ccccc2CCc2ccccc21 [amitriptyline]
